Laboratory results reported in patent US20090130105A1.

Target: All other mutant IGF-1R constructs
Assay: SPR, Fab over captured mutant hIGF-1R-Fc; all of SD001-SD019 other than SD015

Row | Kd | Binder
1 | 1 nM | M13-C06 Fab (Fab, V domains shown) VH: EVQLLESGGGLVQPGGSLRLSCAASGFTFSIYRMQWVRQAPGKGLEWVSGISPSGGTTWYADSVKGRFTISRDNSKNTLYLQMNSLRAEDTAVYYCARWSGGSGYAFDIWGQGTMVTVSS VL: DIQMTQSPLSLSASVGDRVTITCQASRDIRNYLNWYQQKPGKAPKLLIYDASSLQTGVPSRFGGSGSGTDFSFTIGSLQPEDIATYYCQQFDSLPHTFGQGTKLEIK
2 | 5 nM | M14-C03 Fab (Fab, V domains shown) VH: EVQLLESGGGLVQPGGSLRLSCAASGFTFSKYMMSWVRQAPGKGLEWVSYISPSGGLTWYADSVKGRFTISRDNSKNTLYLQMNSLRAEDTAVYYCARDGARGYGMDVWGQGTTVTVSS VL: DIQMTQSPATLSLSPGERATLSCRASQSVSSYLAWYQQKPGQAPRLLIYDASNRATGIPARFSGSGSGTDFTLTISSLEPEDFAVYYCQQRSNWPPEVTFGPGTKVDIK
